Target: SARS-CoV-2 K417N+E484K+N501Y+D614G mutant pseudovirus spike (spikeΔ19) (SARS-CoV-2) (UniProt P0DTC2)
Test: cell-based or functional assay

**Q.** With S309 dimer (antibody) as the substance, how does the NT50 (B.1.351) (nM), pseudovirus neutralization read?
**A.** 0.36 nM

Reference: US20220213176A1
